Experimental findings from patent US12612465B2, “Formulations comprising PCSK9 specific monoclonal antibodies” (Amgen Inc., priority 2012, dated 2026) are described below.

Broadly, the Kd is the constant that tells how readily two partners part at equilibrium. Read a high Kd as lower affinity.

Where a chain is given by its changes, count along the chain named.

In assay [1] the target is human D374Y PCSK9 (Homo sapiens, UniProt Q8NBP7, D374Y/E620G/G670E/V474I). Kind of assay: Receptor ligand blocking screen / functional screening of hybridoma antibodies. It counts as binding. On the procedure:
To screen for the antibodies that block PCSK9 binding to LDLR an assay was developed using the D374Y PCSK9 mutant. […] The following protocol was employed in the receptor ligand blocking screen: Costar 3702 medium binding 384 well plates (Corning Life Sciences) were employed in the screen. The plates were coated with goat anti-LDLR (R&D Cat # AF2148) at 2 μg/ml in 1×PBS/0.05% Azide at a volume of 40 μl/well. The plates were incubated at 4° C. overnight. The plates were then washed using a Titertek plate washer (Titertek, Huntsville, Ala.). A 3-cycle wash was performed. The plates were blocked with 90 μl of 1×PBS/1% milk and incubated approximately 30 minutes at room temperature. The plates were then washed using the Titertek plate washer. A 3-cycle wash was performed. The capture sample was LDLR (R&D, Cat #2148LD/CF), and was added at 0.4 μg/ml in 1×PBS/1% milk/10 mM Ca^2+ at a volume of 40 μl/well. The plates were then incubated for 1 hour and 10 minutes at room temperature. Contemporaneously, 20 ng/ml of biotinylated human D374Y PCSK9 was incubated with 15 micro liters of hybridoma exhaust supernatant in Nunc polypropylene plates and the exhaust supernatant concentration was diluted 1:5. The plates were then pre-incubated for about 1 hour and 30 minutes at room temperature. Next, the plates were washed using the Titertek plate washer operated using a 3-cycle wash. 50 μl/well of the pre-incubated mixture was transferred onto the LDLR coated ELISA plates and incubated for 1 hour at room temperature. To detect LDLR-bound b-PCSK9, 40 μl/well streptavidin HRP at 500 ng/ml in assay diluent was added to the plates. The plates were incubated for 1 hour at room temperature. The plates were again washed using a Titertek plate washer. A 3-cycle wash was performed. Finally, 40 μl/well of One-step TMB (Neogen, Lexington, Ky.) was added to the plate and was quenched with 40 μl/well of 1N hydrochloric acid after 30 minutes at room temperature. OD's were read immediately at 450 nm using a Titertek plate reader.
The receptor ligand assay was then repeated using the mutant enzyme on the 384 member subset of neutralizers identified in the first large scale receptor ligand inhibition assay. The same protocol was employed in the screen of the 384 member blocker subset assay as was done in the large scale receptor ligand blocking screen.
Limiting dilution was used to isolate a manageable number of clones from each line. […] The isolated clones were each expanded in 50-100 ml of hybridoma media and allowed to grow to exhaustion, (i.e., less than about 10% cell viability). The concentration and potency of the antibodies to PCSK9 in the supernatants of those cultures were determined by ELISA and by in vitro functional testing, as described herein.

Assay [2] concerns the target T1, human PCSK9 (Homo sapiens, UniProt Q8NBP7, E620G/G670E/V474I).
T1 construct: made in house
As to the kind of experiment: BIAcore affinity analysis. It counts as binding. On the procedure:
Briefly, the surface plasmon resonance experiments were performed using Biacore 2000 optical biosensors (Biacore, GE Healthcare, Piscataway, N.J.). […] The concentration of PCSK9 protein was varied at 2 fold intervals (the analyte) and was injected over the immobilized antibody surface (at a flow rate of 100 μl/min for 1.5 minutes). […]
The binding signal obtained was proportional to the free PCSK9 in solution.
Antibody binding kinetic parameters including ka (association rate constant), […] (dissociation rate constant), and KD (dissociation equilibrium constant) were determined using the BIA evaluation 3.1 computer program (BIAcore, Inc. Piscataway, N.J.).
For orientation: SPR reads the build-up and loss of mass on a sensor chip optically.

Assay [3] concerns the target T1, human PCSK9. Kind of assay: KinExA affinity analysis. It counts as binding. The following applies: hPCSK9, KinExA. The source says:
Briefly, Reacti-Gel™ (6×) (Pierce) was pre-coated with one of human, V5-tagged cyno or His-tagged mouse PCSK9 proteins and blocked with BSA. […] Equilibrium dissociation constant (KD) were obtained from nonlinear regression of the two sets of competition curves using a one-site homogeneous binding model. The KinExA® Pro software was employed in the analysis.

Assay [4] addresses T2, PCSK9 protein (Mus musculus, UniProt Q80W65).
T2 construct: endogenous in cells; host or cells: WT C57BL/6 mice, in vivo
As to the kind of experiment: Serum cholesterol and HDL in WT mice, 13 day study. It counts as in vivo. The following applies: 10 mg/kg, repeated 13 day study. The source says:
Male WT mice (C57BL/6 strain, aged 9-10 weeks, 17-27 g) obtained from Jackson Laboratory (Bar Harbor, Me.) were fed a normal chow (Harland-Teklad, Diet 2918) through out the duration of the experiment. […] Naïve mice were also set aside as naïve control group.
Animals were sacrificed and livers were extracted and prepared as in Example 13.

T1 sequence (Q8NBP7 153-692 V474I/E620G/G670E): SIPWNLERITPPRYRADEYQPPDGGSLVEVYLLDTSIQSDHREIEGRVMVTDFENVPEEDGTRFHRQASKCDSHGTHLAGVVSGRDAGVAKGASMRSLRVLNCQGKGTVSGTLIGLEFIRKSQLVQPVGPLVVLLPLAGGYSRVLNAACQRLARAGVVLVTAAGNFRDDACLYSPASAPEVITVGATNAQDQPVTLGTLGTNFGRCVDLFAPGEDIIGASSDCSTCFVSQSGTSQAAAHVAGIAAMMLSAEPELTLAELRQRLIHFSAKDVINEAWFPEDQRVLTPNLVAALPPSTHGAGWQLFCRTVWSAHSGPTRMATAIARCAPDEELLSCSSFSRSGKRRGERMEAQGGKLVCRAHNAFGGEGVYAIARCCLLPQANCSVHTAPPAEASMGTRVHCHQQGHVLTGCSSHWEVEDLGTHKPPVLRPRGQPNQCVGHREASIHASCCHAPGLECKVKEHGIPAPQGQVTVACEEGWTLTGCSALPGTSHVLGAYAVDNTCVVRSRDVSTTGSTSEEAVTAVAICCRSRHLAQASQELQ
Chain of human D374Y PCSK9 (Q8NBP7 153-692 D374Y/V474I/E620G/G670E): as the sequence (Q8NBP7 153-692 V474I/E620G/G670E) above, with D222Y counted along it
T2 sequence (Q80W65 156-694): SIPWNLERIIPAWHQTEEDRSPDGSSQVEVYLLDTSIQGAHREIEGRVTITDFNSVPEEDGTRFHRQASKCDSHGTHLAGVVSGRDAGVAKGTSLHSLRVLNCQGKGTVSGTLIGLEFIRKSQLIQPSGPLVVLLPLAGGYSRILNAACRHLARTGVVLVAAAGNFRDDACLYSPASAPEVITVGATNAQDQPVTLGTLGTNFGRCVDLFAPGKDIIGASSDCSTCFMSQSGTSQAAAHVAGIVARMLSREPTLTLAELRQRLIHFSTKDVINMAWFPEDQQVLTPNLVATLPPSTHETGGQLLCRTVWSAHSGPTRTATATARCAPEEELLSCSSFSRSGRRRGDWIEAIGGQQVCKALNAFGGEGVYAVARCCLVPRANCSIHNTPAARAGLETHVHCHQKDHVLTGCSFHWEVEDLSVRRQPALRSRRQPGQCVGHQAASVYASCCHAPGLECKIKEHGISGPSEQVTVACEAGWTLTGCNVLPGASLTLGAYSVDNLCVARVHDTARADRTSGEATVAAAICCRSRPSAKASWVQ

B1: 13H1: anti-PCSK9 ABP, light/heavy variable region SEQ ID NO 28/91 (antibody, listed as Homo sapiens, V domains shown)
VH: QVQLQQSGPGLVKPSQTLSLTCAISGDSVSSNSAAWNWIRQSPSRGLEWLGRTYYRSKWYKNYSVSVKSRITINPDTSKNQFSLQLNSVTPGDTAVYYCARGGPTAAFDYWGQGTLVTVSS
VL: LSALTQPASVSGSPGQSITISCTGTSSDVGNYNLVSWYQQYSGKAPKLMIYEVSKRPSGVSNRFSGSKSGNTASLTISGLQAEDEADYYCCSYAGSSTLVFGGGTKLTVL
For the molecule B1, the neutralizing ability entry in assay [1] was “non-neutralizing”.

B2: 27B2: anti-PCSK9 ABP, light/heavy variable region SEQ ID NO 13/87 (antibody, listed as Homo sapiens, V domains shown)
VH: QVQLQESGPGLVKPSQTLSLTCTVSGGSISSGGYYWSWIRQHPGKGLEWIGYIYNSGSTYYNPSLKSRVTISVDTSKNQFSLKLSSVTAADTAVYYCAREDTAMVPYFDYWGQGTLVTVSS
VL: QSVLTQPPSVSGAPGQRVTISCTGSSSNIGAHYDVHWYQQVPGTAPKLLIYGNTYRPSGVPDRFSGSKSGTSASLAITGLQAEDEADYYCQSYDNSLSGVVFGGGTKLTVL
Consider B2, for which, in assay [1], the neutralizing ability result is listed as “non-neutralizing”.

B3: 13B5: anti-PCSK9 ABP, light/heavy variable region SEQ ID NO 42/69 (antibody, listed as Homo sapiens, V domains shown)
VH: EVQLLESGGGLVQPGGSLRLSCAASGFTFSSYAMSWVRQAPGKGLEWVSTISGSGGRTYYADSVKGRFTISRDNSKNTLYLQMNSLRAEDTAVYYCAKEVGSPFDYWGQGTLVTVSS
VL: QSVLTQPPSVSAAPGQKVTISCSGSNSNIGNNYVSWYQQLPGTAPKLLIYDNNKRPSGIPDRFSGSNSGTSATLGITGLQTGDEADYYCGTWDSSLSAVVFGGGTKLTVL
For the molecule B3, the neutralizing ability result in assay [1] is listed as “non-neutralizing”.

B4: 16F12: anti-PCSK9 ABP, light/heavy variable region SEQ ID NO 35/79 (antibody, listed as Homo sapiens, V domains shown)
VH: QVHLVESGGGVVQPGRSLRLSCAASGFTFNSFGMHWVRQAPGKGLEWVALIWSDGSDEYYADSVKGRFTISRDNSKNTLYLQMNSLRAEDTAVYYCARAIAALYYYYGMDVWGQGTTVTVSS
VL: B3 VL with N26S, Y33F, N52Y, N67K, V99Y, G103T, K106R, L107V
As for B4, the Kd in assay [2] (hPCSK9, pH 7.4 (Table 7.1)) worked out at 0.47 nM; in assay [2] (pH 6 (pH 6.0 HBS-P buffer, n=1)), 0.029 nM; in assay [2] (pH 7.4 (Table 7.2)), 0.47 nM; in assay [3] it was 0.015 nM. Further, the Koff in assay [2] (pH 6) was determined as 7.007e-05 s⁻¹; in assay [2] (pH 7.4), 4.983e-05 s⁻¹. For the same molecule, the Kon in assay [2] (pH 6) came out at 2.392e+06 M⁻¹ s⁻¹; in assay [2] (pH 7.4), 106400 M⁻¹ s⁻¹. Besides, the “total serum cholesterol after a single dose” value in assay [4] was “significant and substantial decreases in total serum cholesterol”.

B5: 3B6: anti-PCSK9 ABP, light/heavy variable region SEQ ID NO 46/60 (antibody, listed as Homo sapiens, V domains shown)
VH: QVQLVQSGAEVKKPGASVKVSCKASGYTFTSYGISWVRQAPGQGLEWMGWISTYNGNTNYAQKVQGRVTMTTDTSTSTAYMELRSLRSDDTAVYYCARGYTRDYWGQGTLVTVSS
VL: QPVLTQPLFASASLGASVTLTCTLSSGYSSYEVDWYQQRPGKGPRFVMRVDTGGIVGSKGEGIPDRFSVLGSGLNRYLTIKNIQEEDESDYHCGADHGSGTNFVVVFGGGTKLTVL
Take B5: the neutralizing ability result in assay [1] is listed as “weak neutralizers”.

B6: 25A7: anti-PCSK9 ABP, light/heavy variable region SEQ ID NO 15/58; neutralizing clone 25A7.3 (antibody, listed as Homo sapiens, V domains shown)
VH: B5 VH with T30P, T53A, Q62E, V64L, L83V, Y94F, T101V, R102M, Y104V, L110T
VL: QSALTQPASVSGSPGQSITISCTGTSSDVGRYNSVSWYQHHPGKAPKVMIYEVSNRPSGVSTRFSGSKSGNTASLTISGLQAEDEADYYCSSYTSSSVVFGGGTKLTVL
Regarding B6, in assay [1] (hybridoma clones), the “blocking of PCSK9/LDLR in the functional assays” value was “neutralizing”.
